Results published in patent US6995018B1, “Complex formed by N-linked glycoproteins (SIBLINGS)and Factor H” (The United States of America as represented by the …, priority 1999, dated 2006).
Entries after “also recorded” stand apart in the source; their conditions may differ.

Assays:
[1] = system: Murine erythroleukemia (MEL) cells; test: Alternate complement mediated cell lysis assay, MEL cells with normal human serum; type: cell-based; conditions: for protection of MEL cells from complement-mediated lysis (cell viability): 10 μg/mL protein 10 min, normal human serum 1:10, 2 h, trypan blue and MTT
Experimental: MEL cells were rinsed three times with GVB-MgEGTA buffer, resuspended in GVB-MgEGTA at a density of 5×10^6 cells/mL, and incubated at 37° C. with different concentrations of normal human serum. After 2 hrs, cells were harvested for trypan blue exclusion assay. The thiazolium blue assay was carried out at identical serum dilutions and cell viability was determined by absorbance at 560 nm. Each data point represents the average of three measurements. The error bars represent the standard deviation of the mean (A). MEL cells in GVB-MgEGTA buffer were incubated with 10 μg/mL of either rBSP or rOPN for 10 minutes at 37° C. Normal human serum was then added at a dilution of 1:10 and the cells were returned to 37° C., incubated for 2 hours and cell viability was determined by trypan blue and thiazolyl blue (MTT) reduction assays (B). Data from 3–7 separate experiments, with treatment replicates in triplicate, was combined to yield mean values. Error bars represent the standard error of the mean. N=number of experiments combined.
MEL cells prepared as in FIG. 8 were treated with normal rBSP (10 μg/mL), rBSP whose RGD sequence had been mutated to KAE ([…]), and either GRGDS (SEQ ID NO: 10) peptide (400 μM) followed by rBSP or an αVβ3 antibody (1:4000) followed by rBSP for 10 minutes prior to the addition of normal human serum. The cells were then incubated for […] after which cell viability determined using the MTT assay (A). A cohort of MEL cells were pretreated with rOPN (10 μg/mL) alone, GRGDS (SEQ ID NO: 10) peptide followed by rOPN, the αVβ3 antibody followed by rOPN, or an anti-CD44 antibody (Chemicon, Co.) followed by rOPN, or hyaluronan (HA) followed by rOPN (B). Cells were then treated with normal human serum and viability assayed as in FIG. 8. […] The data represents the mean and standard error of the mean for three separate experiments. Statistical significance was determined by analysis of variance. Percent cell viability was determined using A560 absorbance values of various conditions and a control where no serum had been added (100% viable). The cross-hatched region represents that range of values observed when normal human serum (1:10) alone was added (maximal cell death).
The first model system employed was a murine erythroleukemia (MEL) cell line which when incubated with normal human serum can be readily assayed for alternate complement pathway (ACP)-mediated cell lysis (Varnet et al., Curr. Opin. Cell Biol., 8(5):724–730, 1996). Cell survival was measured by both trypan blue dye exclusion and by thiazolyl blue (MTT) reduction by living mitochondria. Titration with dilutions of normal human serum and time courses were carried out to define optimal incubation conditions. At 1:10 dilution, human serum totally lysed the MEL cells as measured by both assay systems (FIG. 8A).
Murine erytliroleukemia (MEL) cells (a gift of Dr. Marilyn Farquhar, Univ. CA San Diego.) grown in DMEM containing 10% fetal bovine serum and 4 mM glutamine were rinsed three times with gelatin veronal buffer with Mg2^+ and EGTA (GVB-MgEGTA, Sigma, St. Louis, Mo.). Cells were resuspended in GVB-MgEGTA at a density of 5×10^6 cells/mL and incubated at 37° C. with different concentrations of normal human serum diluted in GVB-MgEGTA. […] Cell viability was determined spectrophotometrically by absorbance at 560 nm. […]

[2] = target: T1, purified human complement Factor H (Homo sapiens, UniProt P08603); test: Steady state fluorescence titration of Factor H with SIBLINGS proteins; type: binding; conditions: fluorescence quenching at 347 nm, excitation 295 nm
T1 construct: purchased Quidel Corporation (San Diego, Calif.)
T1 sequence (P08603 19-1231): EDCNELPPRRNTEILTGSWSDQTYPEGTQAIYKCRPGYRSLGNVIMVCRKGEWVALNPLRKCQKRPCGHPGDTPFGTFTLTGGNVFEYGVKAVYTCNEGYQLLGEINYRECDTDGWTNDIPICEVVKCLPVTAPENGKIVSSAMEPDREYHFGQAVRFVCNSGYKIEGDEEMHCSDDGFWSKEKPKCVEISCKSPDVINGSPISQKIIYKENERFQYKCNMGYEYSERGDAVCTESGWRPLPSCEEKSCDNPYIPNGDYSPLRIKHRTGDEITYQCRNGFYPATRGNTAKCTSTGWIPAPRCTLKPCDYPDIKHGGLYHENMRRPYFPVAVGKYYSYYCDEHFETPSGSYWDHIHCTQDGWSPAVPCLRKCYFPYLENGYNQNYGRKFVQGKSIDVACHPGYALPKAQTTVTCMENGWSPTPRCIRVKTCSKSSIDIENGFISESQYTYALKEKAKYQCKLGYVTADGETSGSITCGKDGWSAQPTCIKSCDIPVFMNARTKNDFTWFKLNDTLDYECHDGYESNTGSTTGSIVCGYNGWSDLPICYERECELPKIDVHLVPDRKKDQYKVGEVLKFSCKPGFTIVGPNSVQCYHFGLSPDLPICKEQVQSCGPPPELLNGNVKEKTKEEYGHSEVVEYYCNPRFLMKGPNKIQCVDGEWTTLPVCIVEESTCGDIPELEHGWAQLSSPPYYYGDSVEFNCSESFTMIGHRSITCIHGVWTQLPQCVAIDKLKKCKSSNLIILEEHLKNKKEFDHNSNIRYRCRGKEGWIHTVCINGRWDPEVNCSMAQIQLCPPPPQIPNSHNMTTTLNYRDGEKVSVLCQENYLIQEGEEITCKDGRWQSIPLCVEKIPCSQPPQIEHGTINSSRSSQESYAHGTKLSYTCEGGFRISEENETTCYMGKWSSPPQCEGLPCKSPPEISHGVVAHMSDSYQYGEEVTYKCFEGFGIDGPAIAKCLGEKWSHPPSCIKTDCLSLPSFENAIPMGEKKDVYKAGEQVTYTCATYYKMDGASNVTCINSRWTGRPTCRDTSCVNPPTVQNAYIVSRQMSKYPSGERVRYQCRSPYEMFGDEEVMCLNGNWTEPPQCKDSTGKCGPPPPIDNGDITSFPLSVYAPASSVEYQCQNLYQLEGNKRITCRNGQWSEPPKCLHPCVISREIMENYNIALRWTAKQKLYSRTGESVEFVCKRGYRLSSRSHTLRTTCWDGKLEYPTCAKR
Excerpt: FIGS. 3A and 3B are graphs which show the result of a titration of Factor H with BSP.
The salient structural features of Factor H include 20 short consensus repeats (SCRs) that contain four cysteine residues forming two disulfide bonds per repeat. In addition, each SCR contains one conserved tryptophan residue per repeat and Factor H is known to interact with several sialic acid-containing proteins. Therefore, binding interactions between members of the SIBLINGS family of proteins and Factor H can be studied by steady state fluorescence.
Steady state fluorescence studies were accomplished by titrating purified human complement Factor H with rBSP, rOPN, and rDMP1 followed by excitation at 295 nm and monitoring emission between 300 and 450 nm. The emission profile of Factor H alone yields a peak at 347 nm. The addition of rBSP, rOPN, or rDMP1 in nm increments causes a relative fluorescent intensity quenching. Conversion of the fluorescent intensity titration into a binding curve by determining the fraction of binding sites occupied as the fractional change in fluorescence quenching at 347 nm yields a saturable binding curve. […] Given that normal serum concentration of Factor H is ^˜0.5 mg/mL it is probable that virtually all BSP, OPN, and DMP1 in serum will be complexed with Factor H.

[3] = system: U-266 myeloma cells; test: Alternate complement pathway cell lysis assay with guinea pig serum, U-266; type: cell-based, human; conditions: U-266, 10 μg/mL, guinea pig serum 1:5, trypan blue and MTT
Experimental: (§1) Human cancer cell lines, MCF-7 (A) and U-266 (B) cells were rinsed three time with GVB-MgEGTA buffer and subsequently treated exactly as in the MEL cell complement-mediated cell lysis assay described above except complement active guinea pig serum (GPS) was substituted for human serum. Three different dilutions of GPS were assayed. For cultures pretreated with 10 μg/mL BSP or OPN, the dilution of GPS used was 1:5. Cell viability was determined by both trypan blue exclusion (solid bar) and MTT (open bar) assay. The bars represent the mean values of triplicate samples and the error bars are the standard deviation values.
(§2) Murine erytliroleukemia (MEL) cells (a gift of Dr. Marilyn Farquhar, Univ. CA San Diego.) grown in DMEM containing 10% fetal bovine serum and 4 mM glutamine were rinsed three times with gelatin veronal buffer with Mg2^+ and EGTA (GVB-MgEGTA, Sigma, St. Louis, Mo.). Cells were resuspended in GVB-MgEGTA at a density of 5×10^6 cells/mL and incubated at 37° C. with different concentrations of normal human serum diluted in GVB-MgEGTA. […] Cell viability was determined spectrophotometrically by absorbance at 560 nm. […] Normal human serum collected for good complement activity was then added at a dilution of 1:10 and the cells returned to 37° C. for 2 hours and cell viability was determined by trypan blue-exclusion and MTT assays. […]

[4] = system: MCF-7 breast cancer cells; test: Alternate complement pathway cell lysis assay with guinea pig serum, MCF-7; type: cell-based, human; conditions: MCF-7, 10 μg/mL, guinea pig serum 1:5, trypan blue and MTT
Experimental: as §1, §2

Molecule | dose relation of protection of MEL cells from alternate complement pathway-mediated lysis [1] | protection of MEL cells from complement-mediated lysis (cell viability) [1] | binding constant with Factor H [2] | protection of MEL cells from complement-mediated lysis (cell viability) ([1]; listed as recombinant BSP) | survival and protection from complement-mediated cell lysis [3] | survival and protection from complement-mediated cell lysis [4]
DMP1: dentin matrix protein, SIBLINGS family member; recombinant from adenoviral construct (protein) LPVTRYQNNESEDSEEWKGHLAQAPTPPLESSESSEGSKVSSEEQANEDPSDSTQSEEGLGSDDHQYIYRLAGGFSRSTGKGGDDKDDDEDDSGDDTFGDDDSGPGPKDRQEGGNSRLGSDEDSDDTIQASEESAPQGQDSAQDTTSESRELDNEDRVDSKPEGGDSTQESESEEHWVGGGSDGESSHGDGSELDDEGMQSDDPESIRSERGNSRMNSAGMKSKESGENSEQANTQDSGGSQLLEHPSRKIFRKSRISEEDDRSELDDNNTMEEVKSDSTENSNSRDTGLSQPRRDSKGDSQEDSKENLSQEESQNVDGPSSESSQEANLSSQENSSESQEEVVSESRGDNPDPTTSYVEDQEDSDSSEEDSSHTLSHSKSESREEQADSESSESLNFSEESPESPEDENSSSQEGLQSHSSSAESQSEESHSEEDDSDSQDSSRSKEDSNSTESKSSSEEDGQLKNIEIESRKLTVDAYHNKPIGDQDDNDCQDGY | dose related responses | conferred protection; also recorded: protect the cells | in the nM range |  |  | 
BSP: Bone sialoprotein, phosphorylated and sulfated integrin-binding glycoprotein, SIBLINGS family; recombinant form from adenovirus-infected human marrow stromal fibroblasts (protein) FSMKNLHRRVKIEDSEENGVFKYRPRYYLYKHAYFYPHLKRFPVQGSSDSSEENGDDSSEEEEEEEETSNEGENNEESNEDEDSEAENTTLSATTLGYGEDATPGTGYTGLAAIQLPKKAGDITNKATKEKESDEEEEEEEEGNENEESEAEVDENEQGINGTSTNSTEAENGNGSSGGDNGEEGEEESVTGANAEGTTETGGQGKGTSKTTTSPNGGFEPTTPPQVYRTTSPPFGKTTTVEYEGEYEYTGVNEYDNGYEIYESENGEPRGDNYRAYEDEYSYFKGQGYDGYDGQNYYHHQ | dose related responses | protect | in the nM range | completely protected | enhanced survival and protection | enhanced survival and protection
